These results are taken from US20260055369A1, “METHOD FOR GENERATING CELLS OF THE T CELL LINEAGE WITH ENGINEERING BROADLY REACTIVE HUMAN NOTCH LIGAND” (H. Lee Moffitt Cancer Center and Research Institute, Inc., priority 2022, published 2026).

A short description of data set [1]: Thermal denaturation by differential scanning fluorimetry (DSF). Type of data set: physicochemical. The settings on record: for melting temperature (Tm): N-EGF5, 5 μM in HBS. On the procedure:
WT DLL4 and Delta^MAX (N-EGF5) were diluted at 5 μM in 20 μL of HBS buffer, and then combined with 10 μM (5×) SYPRO Orange (ThermoFisher Scientific) prepared in 100% DMSO (final DMSO concentration was 0.1%). This mix was equilibrated at room temperature for 30 min. Proteins were analyzed in a 96-well microtiter plate using a StepOnePlus RT-PCR system (Applied Biosystems) applying a continuous heating gradient from 25 to 99° C. with a step of 1% of temperature/min. Data was normalized and represented as the mean of three independent technical replicates. Similar Tm values were obtained for the replica measurements.
A general note: DSF heats the sample and reads unfolding from a dye or from intrinsic fluorescence.

In data set [2] the test system is hPSC-derived neural progenitors. The data set is described as follows: Differentiation of hPSC-derived neural progenitors into neurons (qPCR markers). The data set is classed as cell-based, human. The settings on record: for neural progenitor marker SOX2 expression / neuronal markers (MAPT, SNAP25, DCX, VGLUT2, TBR1) expression: soluble protein 10, 100, 1,000 nM, day 8-14, qPCR. On the procedure: Neural differentiation of hPSCs was performed in two separate phases over 14 days. In the first phase, to differentiate hPSCs into neural progenitors for 7 days, a modification of a previously-reported method was used. However, in this study, differentiation conducted in Chemically Defined Media 2 (CDM2) media, whose composition has been described previously: 50% IMDM+GlutaMAX (Thermo Fisher)+50% F12+GlutaMAX (Thermo Fisher)+1 mg/mL polyvinyl alcohol (Sigma)+1% v/v chemically defined lipid concentrate (Thermo Fisher)+450 μM 1-thioglycerol (Sigma)+0.7 μg/mL recombinant human insulin (Sigma)+15 μg/mL human transferrin (Sigma)+1% v/v penicillin/streptomycin (Thermo Fisher). To create CDM2, polyvinyl alcohol was brought into suspension by gentle warming and magnetic stirring, and the media was sterilely filtered (through a 0.22 μm filter) prior to use. Throughout the first 7 days, differentiation media was changed every 24 hours. The second phase was to differentiate hPSC-derived neural progenitors into neurons for 7 days, from the day 8-14 interval. Neuronal differentiation media was modified from a previously-reported method^9. From day 8-14, cells were differentiated in BDNF (20 ng/ml, PeproTech), GDNF (20 ng/ml, PeproTech), Forskolin (10 μM, Tocris), 2-Phospho-L-ascorbic acid (0.2 mM, Sigma-Aldrich), with the basal media compositions varying depending on the day of differentiation. On day 8, 25% Neurobasal media+75% CDM2 media was used; on day 9, 50% Neurobasal media+50% CDM2 media was used; on day 10, 75% Neurobasal media+25% CDM2 media was used; on days 11-14, 100% Neurobasal media was used. The composition of Neurobasal media was: Neurobasal basal media (Thermo Fisher)+1% v/v N2 (Thermo Fisher)+2% v/v B27 (Thermo Fisher)+1% v/v penicillin/streptomycin (Thermo Fisher), which was filtered through a sterilizing 0.22 μM filter before use. In summary, starting on day 8 of differentiation, Neurobasal media was added in an increasing ¼th increment on a daily basis. However, to emphasize, throughout the entire day 8-14 interval, cells were exposed to the same concentration of neuronal differentiation signals (BDNF, GDNF, Forskolin and 2-Phospho-L-ascorbic acid), although different basal medias were used on different days.
To test the effect of Notch signaling on neuronal differentiation, starting on day 8, hPSC-derived neural progenitors were treated with the aforementioned neuronal differentiation signals in the presence or absence of soluble Delta^MAX (0-1,000 nM), soluble wild-type DLL4 (0-1,000 nM), or DAPT (10,000 nM, Tocris).
After differentiation of hPSCs into neurons as described above, gene expression was analyzed using RNA extraction, reverse transcription, and quantitative PCR (qPCR) as previously described. First, cells were lysed with RNeasy Lysis Buffer (Qiagen) and stored at −20° C. Cell lysates were then thawed, and RNA was extracted using the RNeasy Mini Plus Kit (Qiagen) as per the manufacturer's instructions and dissolved in H2O. Next, 300 ng of RNA was reverse transcribed into complementary DNA (cDNA) using the High-Capacity cDNA Reverse Transcription Kit (Applied Biosystems) according to the manufacturer's protocol. Total cDNA was diluted 1:20 in H2O and qPCR was performed with the SensiFAST SYBR Lo-ROX Kit (Bioline) using 10 μL qPCR reactions per well in a 384-well plate. Each individual reaction contained 5.0 μL 2× SensiFAST SYBR qPCR Master Mix+4.6 μL cDNA+0.4 μL of 10 μM primer stock (5 μM forward+5 μM reverse primers). […]

In data set [3] the test system is Notch1. The data set is described as follows: Notch inhibition assay with soluble antagonists and WT DLL4 coated plates (CHO-K1 N1-Gal4). Type of data set: cell-based. On the procedure: For CHO-K1 N1-Gal4 reporter cells, on day one, biotinylated WT DLL4 was pre-coated in 96-well plates at 50 nM following the same protocol described above. Next, CHO-K1 N1-Gal4 cells were detached with trypsin-EDTA, washed, and diluted at 200,000 cells/mL in α-MEM media. Ten-fold serial dilutions of non-biotinylated DLL4 ligands (N-EGF5) were prepared in DPBS starting at 600 nM. Next, soluble inhibitors were mixed in ratio 1:1 with CHO-K1 N1-Gal4 200,000 cells/mL stocks for 15 min at room temperature to pre-block Notch receptors. Two hundred microliters of inhibition reactions containing 20,000 reporter cells were added to WT DLL4-coated wells, and plates incubated for 24 hours at 37° C. and 5% CO2. When DAPT (gamma-secretase inhibitor, Sigma) and BB-94 (ADAM metalloprotease inhibitor, Sigma) were used, stock solutions were prepared at 100 μM in 8% DMSO. Appropriate DMSO controls were included to test Notch activation and cell viability. Final DMSO concentration in the experiment was kept below 1%. For comparisons of Delta^MAX with DAPT and BB-94, soluble inhibitors were serially diluted in DPBS using 9-folds, incubated with CHO-K1 N1-Gal4 reporter cells, and added to wells as described above. On day two, assay plates were washed with 200 μL of DPBS, CHO-K1 N1-Gal4 cells detached with trypsin-EDTA, quenched with 200 μL of α-MEM media, and Notch activation measured by flow cytometry (BD Accuri C6 Plus). The data represent the mean fluorescent intensity as percentage of Notch activation, relative to Notch activation in the absence of inhibitors±s.d. of three independent biological replicates.
Notch1, sequence (P46531 19-1664 limits assumed): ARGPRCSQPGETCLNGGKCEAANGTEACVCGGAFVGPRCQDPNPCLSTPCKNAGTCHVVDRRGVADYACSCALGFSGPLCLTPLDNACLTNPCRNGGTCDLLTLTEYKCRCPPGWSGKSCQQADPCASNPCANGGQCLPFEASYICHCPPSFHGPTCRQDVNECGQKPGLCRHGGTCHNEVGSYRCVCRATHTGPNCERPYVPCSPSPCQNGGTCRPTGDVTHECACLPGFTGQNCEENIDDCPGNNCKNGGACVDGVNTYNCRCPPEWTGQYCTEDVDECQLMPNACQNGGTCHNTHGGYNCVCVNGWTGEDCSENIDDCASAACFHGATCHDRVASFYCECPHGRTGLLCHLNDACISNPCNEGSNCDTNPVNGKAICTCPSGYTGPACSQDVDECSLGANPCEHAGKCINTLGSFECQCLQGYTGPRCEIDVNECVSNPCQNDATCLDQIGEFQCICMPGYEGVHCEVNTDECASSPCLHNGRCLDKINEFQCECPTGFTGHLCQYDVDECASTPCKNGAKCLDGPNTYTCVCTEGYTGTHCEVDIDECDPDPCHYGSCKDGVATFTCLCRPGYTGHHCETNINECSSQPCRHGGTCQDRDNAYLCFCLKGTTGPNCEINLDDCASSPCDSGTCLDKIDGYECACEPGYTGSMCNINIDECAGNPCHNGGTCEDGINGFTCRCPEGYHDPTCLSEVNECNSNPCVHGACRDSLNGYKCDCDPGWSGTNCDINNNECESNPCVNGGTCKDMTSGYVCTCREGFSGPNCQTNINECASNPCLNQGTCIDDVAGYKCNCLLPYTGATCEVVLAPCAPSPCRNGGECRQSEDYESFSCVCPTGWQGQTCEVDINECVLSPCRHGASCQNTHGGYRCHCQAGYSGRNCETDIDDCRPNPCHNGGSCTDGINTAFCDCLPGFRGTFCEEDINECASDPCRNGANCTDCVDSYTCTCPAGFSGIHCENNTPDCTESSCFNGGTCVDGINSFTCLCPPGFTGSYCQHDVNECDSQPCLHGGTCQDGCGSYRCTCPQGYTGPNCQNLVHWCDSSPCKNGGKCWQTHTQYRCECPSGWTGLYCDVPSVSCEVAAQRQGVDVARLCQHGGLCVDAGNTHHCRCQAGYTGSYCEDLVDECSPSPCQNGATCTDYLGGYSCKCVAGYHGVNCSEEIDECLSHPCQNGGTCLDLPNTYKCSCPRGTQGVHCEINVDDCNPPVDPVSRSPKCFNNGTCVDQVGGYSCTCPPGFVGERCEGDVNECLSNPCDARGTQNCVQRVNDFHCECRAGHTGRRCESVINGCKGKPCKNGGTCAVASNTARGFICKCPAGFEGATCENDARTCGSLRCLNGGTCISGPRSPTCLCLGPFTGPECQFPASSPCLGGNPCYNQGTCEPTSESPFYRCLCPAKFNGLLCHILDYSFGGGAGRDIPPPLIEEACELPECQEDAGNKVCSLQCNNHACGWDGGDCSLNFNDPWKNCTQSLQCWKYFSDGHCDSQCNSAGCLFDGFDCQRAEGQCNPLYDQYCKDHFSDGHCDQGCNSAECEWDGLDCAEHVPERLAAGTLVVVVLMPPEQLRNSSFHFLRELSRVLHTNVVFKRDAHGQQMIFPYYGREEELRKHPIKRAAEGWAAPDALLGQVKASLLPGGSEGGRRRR
Notch1, sequence (P46531 1665-1756 limits assumed): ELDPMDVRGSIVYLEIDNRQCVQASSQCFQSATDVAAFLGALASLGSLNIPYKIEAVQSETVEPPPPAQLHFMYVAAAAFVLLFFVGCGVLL

Residue numbers refer to the chain shown, from its start. Read-outs that look alike come from different tables or passages of the source.

B1: Delta^MAX: engineered human DLL4 consensus variant with 10 mutations combining DLL4.v1 and DLL4.v2 mutations; sequence matches SEQ ID NO: 4/10 (protein)
chain: SSVFQLQLQEFINERGVLASGRPCEPGCRTFFRVCLKHFQAVVSPGPCTFGTVSTPVLGTNSFAVRDDSSGGGRNPLQLPLNFTWPGTFSLIIEAWHAPGDDLRPEALPPDALISKFAIQGSLAVGQNWLLDEQTSTLTRLRYSYRVICSDNYYGDNCSRLCKKRNDYFGHYVCQPDGNPSCLPGWTGEYCQQPICLSGCHEQNGYCSKPAECLCRPGWQGRLCNECIPHPGCRHGTCSTPWQCLCDEGWGGLYCDQDLNYCTHHSPCKNGATCRNSGPRSYTCTCRPGYTGVDCELELSECDSNPCRNGGSCKDQEDGYHCLCPPGYYGLHCEHSTLSCADSPCFNGGSCRERNQGANYACECPPNFTGSNCE
Regarding B1, in data set [1], the “increase in Tm relative to WT DLL4 (ΔTm)” value worked out at 11 °C and the “melting temperature (Tm)” value was 58 °C. Moreover, the “neuronal differentiation compared with 10 μM of DAPT” value in data set [2] (1 μM soluble protein) is “comparable to, if not superior to”. Besides, in data set [2], the “neural progenitor marker SOX2 expression” value is on record as “repressed” and the “neuronal markers (MAPT, SNAP25, DCX, VGLUT2, TBR1) expression” value was “sharply increased”. The IC50 in data set [3] (comparison with DAPT and BB-94, plates coated with 50 nM WT DLL4, FIG. 4B, read-out: IC50 for inhibition of Notch1 activation) is 1 nM. For the same molecule, in data set [3] (ratio of IC50), the “potency relative to BB-94” value is 1,000 fold and the “potency relative to DAPT” value amounted to 40 fold. In addition, in data set [3] (soluble ECD, plates coated with 50 nM WT DLL4, 24 hours, FIG. 4A, read-out: IC50 for inhibition of Notch1 signaling), the IC50 is 0.6 nM.

B2: WT DLL4: human wild-type Delta-like 4 (N-EGF5, residues 27-400), SEQ ID NO: 1 (protein)
chain: B1 chain with S2G, L81F, F117I, Y168H, P180L, P231N, L245T, Y254F, R275S, P279Q
B2: the “melting temperature (Tm)” value in data set [1] came out at 47 °C. For the same molecule, in data set [2], the “neural progenitor marker SOX2 expression” value was “failed to upregulate neuronal markers or to repress neural progenitor markers” and the “neuronal markers (MAPT, SNAP25, DCX, VGLUT2, TBR1) expression” value was “failed to upregulate neuronal markers”. Besides, the “reduction of reporter activity” value in data set [3] (soluble, highest concentration tested (300 nM)) was around 25%.

The term IC50 denotes the concentration at which inhibition is half-maximal.
